According to patent US20100255578A1:

Key:
[1] = biological target: H-296, a polypeptide comprising a heparin binding domain and a CS-1 domain of fibronectin (Homo sapiens (Human)) (UniProt P02751); assay: ELISA; H-296 coated at 50 ug/mL in 0.2 M acetate buffer pH 3.8; HRP-labeled FNH3-8, ABTS
H296-H271 [2] = assay: ELISA; H296-H271 coated at 9 ug/mL; HRP-labeled FNH3-8, ABTS; blank subtracted
H271-H296 [3] = assay: ELISA; H271-H296 coated at 12 ug/mL; HRP-labeled FNH3-8, ABTS; blank subtracted
H296-H296-H296-HT [4] = assay: ELISA; H296-H296-H296-HT coated at 25 ug/mL; HRP-labeled FNH3-8, ABTS; blank subtracted
H296-H296-H296-HT [5] = assay: ELISA; H296-H296-H296-HT coated at 5 ug/mL; HRP-labeled FNH3-8, ABTS; blank subtracted
H296-H296-H296-HT [6] = assay: ELISA; H296-H296-H296-HT coated at 1 ug/mL; HRP-labeled FNH3-8, ABTS; blank subtracted
[7] = biological target: H-296, a polypeptide comprising a heparin binding domain and a CS-1 domain of fibronectin (Homo sapiens (Human)) (UniProt P02751); assay: ELISA; H-296 coated at 25 ug/mL in 0.2 M phosphate buffer pH 8.0; HRP-labeled FNH3-8, ABTS
[8] = biological target: H296-H296 (modified fibronectin fragment in which two H-296's are connected); assay: ELISA as in Example 34; H296-H296 coated at 25 ug/mL in PBS; HRP-labeled FNH3-8
[9] = biological target: H-296, a polypeptide comprising a heparin binding domain and a CS-1 domain of fibronectin (Homo sapiens (Human)) (UniProt P02751); assay: ELISA; H-296 coated at 25 ug/mL in 0.2 M acetate buffer pH 4.4; HRP-labeled FNH3-8, ABTS
[10] = biological target: CH-296, a polypeptide comprising a cell binding domain, a heparin binding domain and a CS-1 domain of fibronectin (Homo sapiens (Human)) (UniProt P02751); assay: ELISA; CH-296 coated at 25 ug/mL; HRP-labeled FNH3-8, ABTS; blank subtracted
[11] = biological target: H-296, a polypeptide comprising a heparin binding domain and a CS-1 domain of fibronectin (Homo sapiens (Human)) (UniProt P02751); assay: ELISA; H-296 coated at 50 ug/mL in 0.2 M acetate buffer pH 4.4; HRP-labeled FNH3-8, ABTS
[12] = biological target: H-296, a polypeptide comprising a heparin binding domain and a CS-1 domain of fibronectin (Homo sapiens (Human)) (UniProt P02751); assay: ELISA as in Example 34; H-296 coated at 25 ug/mL in pH 5.6 acetate buffer; HRP-labeled FNH3-8
H296-H296-H296-HT [13] = assay: ELISA; H296-H296-H296-HT coated at 3 ug/mL; HRP-labeled FNH3-8, ABTS; blank subtracted
H271-H296 [14] = assay: ELISA; H271-H296 coated at 16 ug/mL; HRP-labeled FNH3-8, ABTS; blank subtracted
H271-H296 [15] = assay: ELISA; H271-H296 coated at 18 ug/mL; HRP-labeled FNH3-8, ABTS; blank subtracted
H296-H296-HT [16] = assay: ELISA; H296-H296-HT coated at 1 ug/mL; HRP-labeled FNH3-8, ABTS; blank subtracted
[17] = biological target: H-296, a polypeptide comprising a heparin binding domain and a CS-1 domain of fibronectin (Homo sapiens (Human)) (UniProt P02751); assay: ELISA; H-296 coated at 50 ug/mL in 0.2 M acetate buffer pH 5.0; HRP-labeled FNH3-8, ABTS
H271-H296 [18] = assay: ELISA; H271-H296 coated at 14 ug/mL; HRP-labeled FNH3-8, ABTS; blank subtracted
[19] = biological target: H-296, a polypeptide comprising a heparin binding domain and a CS-1 domain of fibronectin (Homo sapiens (Human)) (UniProt P02751); assay: ELISA; H-296 coated at 25 ug/mL in 0.2 M phosphate buffer pH 7.4; HRP-labeled FNH3-8, ABTS
H296-H296-HT [20] = assay: ELISA; H296-H296-HT coated at 0.5 ug/mL; HRP-labeled FNH3-8, ABTS; blank subtracted
[21] = biological target: H296-H296 (modified fibronectin fragment in which two H-296's are connected); assay: ELISA as in Example 34; H296-H296 coated at 3.125 ug/mL in PBS; HRP-labeled FNH3-8
[22] = biological target: H-296, a polypeptide comprising a heparin binding domain and a CS-1 domain of fibronectin (Homo sapiens (Human)) (UniProt P02751); assay: ELISA; H-296 coated at 25 ug/mL in 0.2 M phosphate buffer pH 6.2; HRP-labeled FNH3-8, ABTS
H296-H271 [23] = assay: ELISA; H296-H271 coated at 13 ug/mL; HRP-labeled FNH3-8, ABTS; blank subtracted
H271-H296 [24] = assay: ELISA; H271-H296 coated at 20 ug/mL; HRP-labeled FNH3-8, ABTS; blank subtracted
H296-H296-H296-HT [25] = assay: ELISA; H296-H296-H296-HT coated at 10 ug/mL; HRP-labeled FNH3-8, ABTS; blank subtracted
H296-H296-H296-HT [26] = assay: ELISA; H296-H296-H296-HT coated at 2 ug/mL; HRP-labeled FNH3-8, ABTS; blank subtracted
[27] = biological target: H-296, a polypeptide comprising a heparin binding domain and a CS-1 domain of fibronectin (Homo sapiens (Human)) (UniProt P02751); assay: ELISA; H-296 coated at 50 ug/mL in 0.2 M phosphate buffer pH 7.4; HRP-labeled FNH3-8, ABTS
H296-H296-HT [28] = assay: ELISA; H296-H296-HT coated at 25 ug/mL; HRP-labeled FNH3-8, ABTS; blank subtracted

H296-H296-HT, sequence (chain, as listed by the source limits assumed): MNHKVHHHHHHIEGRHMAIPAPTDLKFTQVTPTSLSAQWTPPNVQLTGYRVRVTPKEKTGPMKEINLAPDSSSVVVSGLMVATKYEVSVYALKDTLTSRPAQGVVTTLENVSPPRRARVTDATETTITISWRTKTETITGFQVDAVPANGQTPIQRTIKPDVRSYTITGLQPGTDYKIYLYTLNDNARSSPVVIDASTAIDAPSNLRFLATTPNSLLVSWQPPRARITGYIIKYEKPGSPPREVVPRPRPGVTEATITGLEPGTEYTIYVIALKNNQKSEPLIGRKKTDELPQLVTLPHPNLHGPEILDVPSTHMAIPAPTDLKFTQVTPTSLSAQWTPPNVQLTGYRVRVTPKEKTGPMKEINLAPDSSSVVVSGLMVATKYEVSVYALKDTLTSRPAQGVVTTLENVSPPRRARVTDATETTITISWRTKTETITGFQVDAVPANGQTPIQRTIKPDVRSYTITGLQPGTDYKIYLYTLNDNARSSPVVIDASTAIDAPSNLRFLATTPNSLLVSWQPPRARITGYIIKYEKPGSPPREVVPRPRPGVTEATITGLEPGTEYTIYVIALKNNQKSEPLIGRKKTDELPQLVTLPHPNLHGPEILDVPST
H296-H296-H296-HT, sequence (chain, as listed by the source limits assumed): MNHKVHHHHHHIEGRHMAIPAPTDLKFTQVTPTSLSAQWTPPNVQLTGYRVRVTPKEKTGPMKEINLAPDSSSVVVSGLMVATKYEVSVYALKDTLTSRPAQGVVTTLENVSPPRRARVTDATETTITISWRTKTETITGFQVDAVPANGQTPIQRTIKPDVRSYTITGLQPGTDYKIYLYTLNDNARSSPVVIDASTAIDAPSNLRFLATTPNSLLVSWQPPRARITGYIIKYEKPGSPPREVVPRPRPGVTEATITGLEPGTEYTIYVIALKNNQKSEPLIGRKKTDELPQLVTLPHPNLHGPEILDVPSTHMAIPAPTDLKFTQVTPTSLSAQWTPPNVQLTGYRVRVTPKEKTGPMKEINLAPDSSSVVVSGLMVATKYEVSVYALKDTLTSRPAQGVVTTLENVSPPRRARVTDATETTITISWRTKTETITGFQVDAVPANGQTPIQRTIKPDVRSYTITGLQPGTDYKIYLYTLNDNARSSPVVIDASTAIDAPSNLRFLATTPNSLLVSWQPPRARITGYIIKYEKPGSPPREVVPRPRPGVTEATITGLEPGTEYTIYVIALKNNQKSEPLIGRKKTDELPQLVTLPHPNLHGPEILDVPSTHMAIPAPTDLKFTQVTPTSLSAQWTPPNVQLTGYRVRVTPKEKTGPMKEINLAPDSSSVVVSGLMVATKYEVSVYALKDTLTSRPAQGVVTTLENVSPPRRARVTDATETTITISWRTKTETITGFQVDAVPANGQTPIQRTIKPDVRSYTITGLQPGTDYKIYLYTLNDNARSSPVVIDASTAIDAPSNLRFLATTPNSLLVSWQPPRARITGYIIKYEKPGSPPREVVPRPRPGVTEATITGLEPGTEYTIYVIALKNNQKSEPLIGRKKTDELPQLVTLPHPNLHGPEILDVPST
H271-H296, sequence (chain, as listed by the source limits assumed): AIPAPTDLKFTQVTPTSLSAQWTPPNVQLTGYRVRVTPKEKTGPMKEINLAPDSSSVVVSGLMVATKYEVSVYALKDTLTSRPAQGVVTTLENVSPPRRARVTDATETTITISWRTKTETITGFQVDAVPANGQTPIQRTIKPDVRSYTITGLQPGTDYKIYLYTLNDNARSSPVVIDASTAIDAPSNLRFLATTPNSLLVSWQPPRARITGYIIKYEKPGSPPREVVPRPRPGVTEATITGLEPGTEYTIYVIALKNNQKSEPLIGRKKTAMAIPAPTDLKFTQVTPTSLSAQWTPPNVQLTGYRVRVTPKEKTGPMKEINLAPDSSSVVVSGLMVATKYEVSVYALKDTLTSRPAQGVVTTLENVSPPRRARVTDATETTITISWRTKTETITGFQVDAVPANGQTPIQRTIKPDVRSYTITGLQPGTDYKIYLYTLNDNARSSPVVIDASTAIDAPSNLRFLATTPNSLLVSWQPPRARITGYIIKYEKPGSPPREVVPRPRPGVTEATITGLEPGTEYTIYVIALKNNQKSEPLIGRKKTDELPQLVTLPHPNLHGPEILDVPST
H296-H271, sequence (chain, as listed by the source limits assumed): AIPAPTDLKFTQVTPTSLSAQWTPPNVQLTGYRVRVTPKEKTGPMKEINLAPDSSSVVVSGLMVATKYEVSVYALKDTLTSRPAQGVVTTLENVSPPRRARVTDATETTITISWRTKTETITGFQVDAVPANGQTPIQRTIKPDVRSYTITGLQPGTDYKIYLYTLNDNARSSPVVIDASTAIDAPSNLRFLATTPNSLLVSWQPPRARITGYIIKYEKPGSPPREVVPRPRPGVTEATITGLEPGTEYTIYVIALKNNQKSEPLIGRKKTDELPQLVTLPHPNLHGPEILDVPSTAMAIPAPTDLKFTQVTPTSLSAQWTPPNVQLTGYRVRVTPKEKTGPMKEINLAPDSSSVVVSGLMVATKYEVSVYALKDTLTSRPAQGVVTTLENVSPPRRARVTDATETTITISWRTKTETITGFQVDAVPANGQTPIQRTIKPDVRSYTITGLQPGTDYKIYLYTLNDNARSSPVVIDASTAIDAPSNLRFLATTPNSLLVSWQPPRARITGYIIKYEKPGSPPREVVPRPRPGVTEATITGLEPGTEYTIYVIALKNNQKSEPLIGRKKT

absorbance at 405 nm [1]: 0.213
405 nm (Found Value - Blank) (H296-H271 [2]): 0.56
405 nm (Found Value - Blank) (H271-H296 [3]): 0.639
405 nm (Found Value - Blank) (H296-H296-H296-HT [4]): 0.991
405 nm (Found Value - Blank) (H296-H296-H296-HT [5]): 0.87
405 nm (Found Value - Blank) (H296-H296-H296-HT [6]): 0.261
absorbance at 405 nm [7]: 0.104
absorbance at 405 nm [8]: 2.02
absorbance at 405 nm [9]: 0.428
405 nm (Found Value - Blank) [10]: 0.859
absorbance at 405 nm [11]: 0.379
absorbance at 405 nm [12]: 0.224
405 nm (Found Value - Blank) (H296-H296-H296-HT [13]): 0.743
405 nm (Found Value - Blank) (H271-H296 [14]): 0.594
405 nm (Found Value - Blank) (H271-H296 [15]): 0.61
405 nm (Found Value - Blank) (H296-H296-HT [16]): 0.186
absorbance at 405 nm [17]: 0.451
405 nm (Found Value - Blank) (H271-H296 [18]): 0.605
absorbance at 405 nm [19]: 0.08
405 nm (Found Value - Blank) (H296-H296-HT [20]): 0.033
absorbance at 405 nm [21]: 1.01
absorbance at 405 nm [22]: 0.131
405 nm (Found Value - Blank) (H296-H271 [23]): 0.609
405 nm (Found Value - Blank) (H271-H296 [24]): 0.603
405 nm (Found Value - Blank) (H296-H296-H296-HT [25]): 0.924
405 nm (Found Value - Blank) (H296-H296-H296-HT [26]): 0.545
absorbance at 405 nm [27]: 0.169
405 nm (Found Value - Blank) (H296-H296-HT [28]): 0.965
Substance: FNH3-8 antibody (manufactured by TAKARA BIO INC.) labeled with HRP
